Test results published in paper PMC5031806.

Molecular target: meMICU1^97-476 (human MICU1 residues 97-476, methylated in vitro by recombinant PRMT1) (human) (UniProt Q9BPX6)
Assay: ITC; IML2^UCP2 (500 μM, syringe) titrated into MICU1 (40 μM, cell); VP-ITC, 25 °C; 20 mM Tris pH 7.0, 500 mM NaCl, 50 mM Arg, 2 mM BME; single site-binding model

UniProt Q9BPX6, sequence (Q9BPX6 97-476): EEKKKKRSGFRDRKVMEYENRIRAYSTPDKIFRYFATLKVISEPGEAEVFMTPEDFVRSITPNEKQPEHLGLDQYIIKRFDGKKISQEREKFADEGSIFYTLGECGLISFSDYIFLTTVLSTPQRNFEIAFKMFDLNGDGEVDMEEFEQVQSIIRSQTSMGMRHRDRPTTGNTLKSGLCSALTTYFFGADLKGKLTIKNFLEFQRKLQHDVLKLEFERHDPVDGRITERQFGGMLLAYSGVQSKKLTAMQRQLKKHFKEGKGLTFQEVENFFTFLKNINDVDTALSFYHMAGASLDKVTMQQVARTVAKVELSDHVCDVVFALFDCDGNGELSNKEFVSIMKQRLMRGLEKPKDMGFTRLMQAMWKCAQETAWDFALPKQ

Substance: IML2^UCP2 (chemically synthetized intermembrane loop 2 of UCP2) (from UniProt P55851 147-171) (peptide)
- Kd: 24.6 µM
